Source: patent US20200199213A1 (Eli Lilly, published 2020)

T1: human ANGPTL8 (human, UniProt Q6UXH0 22-198)
T1 construct: Biotinylated in the ELISA assays; also called hANGPTL8; free ANGPTL8
T1 sequence: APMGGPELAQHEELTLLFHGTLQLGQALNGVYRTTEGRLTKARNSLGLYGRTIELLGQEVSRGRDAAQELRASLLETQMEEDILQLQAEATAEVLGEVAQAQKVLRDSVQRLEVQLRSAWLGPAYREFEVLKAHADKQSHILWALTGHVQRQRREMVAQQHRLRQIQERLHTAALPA

T2: human ANGPTL3 (human, UniProt Q9Y5C1 17-460)
T2 construct: Biotinylated in the ELISA assays; also called hANGPTL3; free ANGPTL3
T2 sequence: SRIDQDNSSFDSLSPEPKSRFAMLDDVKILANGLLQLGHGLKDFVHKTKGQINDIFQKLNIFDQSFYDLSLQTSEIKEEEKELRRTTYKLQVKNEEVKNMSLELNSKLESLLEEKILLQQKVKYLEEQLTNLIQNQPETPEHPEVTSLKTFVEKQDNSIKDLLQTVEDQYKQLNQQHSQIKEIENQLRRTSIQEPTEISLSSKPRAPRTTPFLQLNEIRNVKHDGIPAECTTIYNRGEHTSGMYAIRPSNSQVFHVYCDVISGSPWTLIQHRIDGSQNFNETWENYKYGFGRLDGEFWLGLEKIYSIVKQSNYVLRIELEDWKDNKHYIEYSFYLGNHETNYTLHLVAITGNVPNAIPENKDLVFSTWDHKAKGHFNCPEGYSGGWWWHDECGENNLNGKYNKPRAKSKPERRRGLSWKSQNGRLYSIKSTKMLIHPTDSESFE

T3: human ANGPTL3/8 complex (human, UniProt Q9Y5C1 17-460; Q6UXH0 22-198, limits assumed)
T3 construct: also called hANGPTL3/8 complex; ANGTPL3/8 complex
T3 sequence 1: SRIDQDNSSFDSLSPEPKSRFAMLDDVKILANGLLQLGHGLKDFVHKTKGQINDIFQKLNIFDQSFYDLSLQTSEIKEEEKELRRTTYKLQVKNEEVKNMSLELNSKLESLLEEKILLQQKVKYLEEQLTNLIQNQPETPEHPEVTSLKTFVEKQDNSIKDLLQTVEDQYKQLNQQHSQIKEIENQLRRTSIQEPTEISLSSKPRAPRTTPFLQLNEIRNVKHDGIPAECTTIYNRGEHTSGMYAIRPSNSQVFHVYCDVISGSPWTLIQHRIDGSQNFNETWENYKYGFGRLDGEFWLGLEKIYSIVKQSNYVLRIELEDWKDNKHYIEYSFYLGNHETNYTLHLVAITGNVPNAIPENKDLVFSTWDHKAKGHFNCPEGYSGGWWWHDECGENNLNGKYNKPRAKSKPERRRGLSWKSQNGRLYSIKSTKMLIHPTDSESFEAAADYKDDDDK
T3 sequence 2: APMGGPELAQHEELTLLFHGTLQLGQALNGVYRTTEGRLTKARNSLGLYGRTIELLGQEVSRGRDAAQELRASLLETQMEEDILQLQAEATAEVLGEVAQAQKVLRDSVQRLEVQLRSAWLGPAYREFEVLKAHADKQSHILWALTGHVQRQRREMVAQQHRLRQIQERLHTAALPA

T4: mouse ANGPTL3/8 complex (mouse, UniProt Q9R182 17-455; Q8R1L8 16-198, limits assumed)
T4 sequence (looked up) 1: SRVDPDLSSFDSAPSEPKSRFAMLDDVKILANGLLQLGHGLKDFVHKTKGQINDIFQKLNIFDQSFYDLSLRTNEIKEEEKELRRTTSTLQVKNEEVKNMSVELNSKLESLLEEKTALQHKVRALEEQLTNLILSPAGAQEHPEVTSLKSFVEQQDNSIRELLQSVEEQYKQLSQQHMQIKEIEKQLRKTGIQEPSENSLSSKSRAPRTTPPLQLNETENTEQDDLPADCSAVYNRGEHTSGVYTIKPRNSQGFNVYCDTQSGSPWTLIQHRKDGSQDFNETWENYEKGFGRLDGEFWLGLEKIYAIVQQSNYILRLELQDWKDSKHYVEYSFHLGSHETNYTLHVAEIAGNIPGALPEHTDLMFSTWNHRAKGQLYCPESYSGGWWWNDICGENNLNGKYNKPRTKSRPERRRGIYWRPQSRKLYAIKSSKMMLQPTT
T4 sequence (looked up) 2: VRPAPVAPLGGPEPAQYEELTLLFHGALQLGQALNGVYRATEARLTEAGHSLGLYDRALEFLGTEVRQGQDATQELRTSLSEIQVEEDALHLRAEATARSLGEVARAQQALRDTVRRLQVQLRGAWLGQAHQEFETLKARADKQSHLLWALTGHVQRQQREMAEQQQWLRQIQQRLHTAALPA

B1: anti-ANGPTL3/8 complex Ab having a LC of SEQ ID NO:5 and a HC of SEQ ID NO:6 (antibody, human IgG4 S228P, kappa, F234A L235A, V domains shown)
VH: QVTLKESGPTLVKPTQTLTLTCTFSGFSLSISGVGVGWIRQPPGKALEWLALIYRNDDKRYSPSLKSRLTITKDTSKNQVVLTLTNMDPVDTATYYCARTYSSGWYGNWFDPWGQGTLVTVSS
VL: DIVMTQTPLSLPVTPGEPASISCRSSQSLLDSDDGNTYLDWYLQKPGQSPQLLIYMLSYRASGVPDRFSGSGSGTDFTLKISRVEAEDVGIYYCMQRIEFPLTFGGGTKVEIKR
notes: In the ELISA assays tested as IgG from CHO supernatants; also called the Ab
B2: Ab with LC variant having a D33A mutation (SEQ ID NO:22) and a HC of SEQ ID NO:6 (antibody, human IgG4 S228P, kappa, F234A L235A, V domains shown)
VH: QVTLKESGPTLVKPTQTLTLTCTFSGFSLSISGVGVGWIRQPPGKALEWLALIYRNDDKRYSPSLKSRLTITKDTSKNQVVLTLTNMDPVDTATYYCARTYSSGWYGNWFDPWGQGTLVTVSS
VL: DIVMTQTPLSLPVTPGEPASISCRSSQSLLDSADGNTYLDWYLQKPGQSPQLLIYMLSYRASGVPDRFSGSGSGTDFTLKISRVEAEDVGIYYCMQRIEFPLTFGGGTKVEIKR
notes: also called D33A Variant Ab; D33A Ab
B3: Ab with LC variant having a D31S mutation (SEQ ID NO:21) and a HC of SEQ ID NO:6 (antibody, human IgG4 S228P, kappa, F234A L235A, V domains shown)
VH: QVTLKESGPTLVKPTQTLTLTCTFSGFSLSISGVGVGWIRQPPGKALEWLALIYRNDDKRYSPSLKSRLTITKDTSKNQVVLTLTNMDPVDTATYYCARTYSSGWYGNWFDPWGQGTLVTVSS
VL: DIVMTQTPLSLPVTPGEPASISCRSSQSLLSSDDGNTYLDWYLQKPGQSPQLLIYMLSYRASGVPDRFSGSGSGTDFTLKISRVEAEDVGIYYCMQRIEFPLTFGGGTKVEIKR
notes: also called D31S Variant Ab; D31S Ab
B4: Ab with LC variant having a E99Q mutation (SEQ ID NO:25) and a HC of SEQ ID NO:6 (antibody, human IgG4 S228P, kappa, F234A L235A, V domains shown)
VH: QVTLKESGPTLVKPTQTLTLTCTFSGFSLSISGVGVGWIRQPPGKALEWLALIYRNDDKRYSPSLKSRLTITKDTSKNQVVLTLTNMDPVDTATYYCARTYSSGWYGNWFDPWGQGTLVTVSS
VL: DIVMTQTPLSLPVTPGEPASISCRSSQSLLDSDDGNTYLDWYLQKPGQSPQLLIYMLSYRASGVPDRFSGSGSGTDFTLKISRVEAEDVGIYYCMQRIQFPLTFGGGTKVEIKR
notes: also called E99Q Variant Ab; E99Q Ab

Key:
[1] = target: T1, human ANGPTL8; assay: ELISA; Ab captured by anti-human Fc; biotinylated antigen at 3.70 nM
Method: (§1) ELISA Assay: Ab binding selectivity to either the ANGPTL3/8 complex, free ANGPTL3 or free ANGPTL8 is verified using standard ELISA assays. […] Ab from CHO supernatants after expression in CHO cells is then captured to the assay plate and results is an Ab concentration of 2 μg/ml. Biotinylated antigen (ANGPTL3, ANGPTL8 or ANGPTL3/8 complex) is added at varying concentrations by serial dilution to allow for Ab/antigen binding. Ab/antigen complexes are detected after the addition of alkaline phosphatase-conjugated neutravidin, and alkaline phosphatase substrate, and subsequent measurement of the optical density at 560 nm.

[2] = target: T2, human ANGPTL3; assay: as above
Method: as §1

[3] = target: T2, human ANGPTL3; assay: ELISA; Ab captured by anti-human Fc; biotinylated antigen at 1.23 nM
Method: as §1

[4] = target: T1, human ANGPTL8; assay: ELISA; Ab captured by anti-human Fc; biotinylated antigen at 0.046 nM
Method: as §1

[5] = target: T3, human ANGPTL3/8 complex; assay: as above
Method: as §1

[6] = target: T2, human ANGPTL3; assay: as above
Method: as §1

[7] = target: T1, human ANGPTL8; assay: ELISA; Ab captured by anti-human Fc; biotinylated antigen at 0.137 nM
Method: as §1

[8] = target: T3, human ANGPTL3/8 complex; assay: as above
Method: as §1

[9] = target: T2, human ANGPTL3; assay: as above
Method: as §1

[10] = target: T4, mouse ANGPTL3/8 complex; assay: cell-based or functional assay
[11] = target: T3, human ANGPTL3/8 complex; assay: cell-based or functional assay

Row | Binder | OD at 560 nm [1] | OD at 560 nm [2] | OD at 560 nm [3] | OD at 560 nm [4] | OD at 560 nm [5] | OD at 560 nm [6] | OD at 560 nm [7] | OD at 560 nm [8] | OD at 560 nm [9] | % Max Derepression LPL [10] | Ab EC50 (nM), derepression of LPL [10] | % Max Derepression LPL [11] | Ab EC50 (nM), derepression of LPL [11]
1 | B1 | 0.051 OD 560 nm | 0.046 OD 560 nm | 0.043 OD 560 nm | 0.051 OD 560 nm | 0.078 OD 560 nm | 0.06 OD 560 nm | 0.047 OD 560 nm | 0.11 OD 560 nm | 0.048 OD 560 nm | – | – | – | –
2 | B2 | 0.048 OD 560 nm | 0.056 OD 560 nm | 0.057 OD 560 nm | 0.074 OD 560 nm | 0.111 OD 560 nm | 0.062 OD 560 nm | 0.053 OD 560 nm | 0.101 OD 560 nm | 0.062 OD 560 nm | 106% | 4.07 nM | 103% | 1.14 nM
3 | B3 | 0.056 OD 560 nm | 0.06 OD 560 nm | 0.059 OD 560 nm | 0.096 OD 560 nm | 0.149 OD 560 nm | 0.06 OD 560 nm | 0.08 OD 560 nm | 0.137 OD 560 nm | 0.057 OD 560 nm | 110% | 1.79 nM | 106% | 0.86 nM
4 | B4 | 0.056 OD 560 nm | 0.06 OD 560 nm | 0.059 OD 560 nm | 0.096 OD 560 nm | 0.149 OD 560 nm | 0.06 OD 560 nm | 0.08 OD 560 nm | 0.137 OD 560 nm | 0.057 OD 560 nm | 110% | 1.65 nM | 106% | 0.49 nM
